According to US20110189093A1, “PROSTATE SPECIFIC MEMBRANE ANTIGEN ANTIBODIES AND ANTIGEN BINDING FRAGMENTS” (PROSCAN RX PHARMA, priority 2008, published 2011):

How the values were obtained:
[1] = system: 30 different normal tissues; experiment: Immunohistochemistry on tissue microarrays of normal tissues
Procedure: (§1) Tissue and tumor specificity of mAbs: to compare the tissue and tumor specificity of monoclonal antibodies of the present invention, tissue microarrays of 30 different normal tissues (Biochain) and 22 different tumor types (Dako) including prostate cancer was used in order to characterize their recognition specificity. The immunohistochemistry was performed on antigen retrieved, formalin fixed, paraffin embedded material. Anti-PSMA mAbs J591 (ATCC HB-12126) and 7E11 (ATCC HB-10494) were used as references. Formalin fixed paraffin embedded […] sections were subjected to antigen retrieval in basic antigen retrieval solution (BD Pharmingen pH 9.5) in a microwavable pressure cooker for 10 min, cooled and equilibrated to 0.01M phosphate buffered saline (PBS) pH 7.4. Staining was carried out at room temperature in a humidified chamber. Endogenous peroxidases were inactivated with a 1% solution of H2O2 for 20 min, blocked with 5% normal goat serum (NGS) for 30 min and incubated with primary monoclonal antibodies (mAbs) diluted in PBS; 2% NGS overnight. Antibody binding to tissue sections was detected by the sequential addition of the following reagents followed by washing in PBS: goat anti-mouse IgG (H+L) (ICN) secondary antibody diluted 1:100 in PBS; 2% NGS for 1 hr, a complex of a bi-specific mAb mouse anti-peroxidase and horse radish peroxidase for 1 hr, and 3,3-diaminobenzidene tetrahydrochloride (DAB) at 0.6 mg/ml in PBS; 2% NGS; 0.01% H2O2 as chromogen. The primary antibodies were purified mAbs used at concentrations optimized in dilution experiments. […] Mouse IgG mAb was used at a concentration of 0.2 μg/ml and served as a negative control for the primary antibodies. Tissue samples included organ confined and metastatic prostate cancer, HGPIN and normal prostate tissues drawn from radical prostatectomies, transurethral resections and autopsy material.

[2] = system: 22 different tumor types; experiment: Immunohistochemistry on tissue microarrays of tumor types
Procedure: as §1

B1: PSf42.1: anti-PSMA monoclonal antibody; light chain variable SEQ ID NO:45, heavy chain variable SEQ ID NO:46 (antibody, V domains shown)
VH: EVQLEESGAEFVRPGAAVKLSCTVSGLNIKDSYLHWVKQRPEQGLEWIGGIDPANGDVEYDPKFQGKAAITADTSSNTAYLRLSSLTSEDTAVYYCAPFPYWGAGTTVTVS
VL: DILMTQSPLTLSVIIGQPASFSCKSSHSLLHRDGRTYLNWLLQRPGQSPQRLIYLVSKLDSGVPDRFTGSGSGTDFTLKISRVEAEDLGVYYCWQGTHFPRTFGGGTKLEIKRA
No. of positive cases/total no. of cases studied ([1]; Adipose): 0/2
No. of positive cases/total no. of cases studied ([1]; Bladder): 0/2
No. of positive cases/total no. of cases studied ([1]; Brain): 0/2
No. of positive cases/total no. of cases studied ([1]; Breast): 0/2
No. of positive cases/total no. of cases studied ([1]; Cerebullum): 0/2
No. of positive cases/total no. of cases studied ([1]; Cervix): 0/2
No. of positive cases/total no. of cases studied ([1]; Colon): 0/2
No. of positive cases/total no. of cases studied ([1]; Diaphragm): 2/2
No. of positive cases/total no. of cases studied ([1]; Duodenum): 0/2
No. of positive cases/total no. of cases studied ([1]; Esophagus): 0/2
No. of positive cases/total no. of cases studied ([1]; Gallbladder): 0/2
No. of positive cases/total no. of cases studied ([1]; Heart): 0/2
No. of positive cases/total no. of cases studied ([1]; Ileum): 0/2
No. of positive cases/total no. of cases studied ([1]; Jejenum): 0/2
No. of positive cases/total no. of cases studied ([1]; Kidney): 0/2
No. of positive cases/total no. of cases studied ([1]; Liver): 0/2
No. of positive cases/total no. of cases studied ([1]; Lung): 0/2
No. of positive cases/total no. of cases studied ([1]; Ovary): 0/2
No. of positive cases/total no. of cases studied ([1]; Pancreas): 0/2
No. of positive cases/total no. of cases studied ([1]; Placenta): 0/4
No. of positive cases/total no. of cases studied ([1]; Rectum): 0/2
No. of positive cases/total no. of cases studied ([1]; Skeletal muscle): 2/2
No. of positive cases/total no. of cases studied ([1]; Skin): 0/2
No. of positive cases/total no. of cases studied ([1]; Spleen): 0/2
No. of positive cases/total no. of cases studied ([1]; Stomach): 0/2
No. of positive cases/total no. of cases studied ([1]; Testis): 0/2
No. of positive cases/total no. of cases studied ([1]; Thymus): 0/2
No. of positive cases/total no. of cases studied ([1]; Thyroid): 0/2
No. of positive cases/total no. of cases studied ([1]; Tonsil): 0/2
No. of positive cases/total no. of cases studied ([1]; Uterus): 0/2
No. of positive cases/total no. of cases studied ([2]; Astrocytoma): 0/2
No. of positive cases/total no. of cases studied ([2]; Breast carcinoma): 0/2
No. of positive cases/total no. of cases studied ([2]; Carcinoid): 0/3
No. of positive cases/total no. of cases studied ([2]; Colonic adenocarcinoma): 0/2
No. of positive cases/total no. of cases studied ([2]; Epithelioid sarcoma): 0/1
No. of positive cases/total no. of cases studied ([2]; Ewing's sarcoma): 0/1
No. of positive cases/total no. of cases studied ([2]; Gastric carcinoma): 0/2
No. of positive cases/total no. of cases studied ([2]; Hepatocellular carcinoma): 0/2
No. of positive cases/total no. of cases studied ([2]; Hodgkin's lymphoma): 1/13
No. of positive cases/total no. of cases studied ([2]; Leiomyoma): 0/2
No. of positive cases/total no. of cases studied ([2]; Lung adeno carcinoma): 0/2
No. of positive cases/total no. of cases studied ([2]; Lymphoma): 0/3
No. of positive cases/total no. of cases studied ([2]; Malignant fibrous histiocytoma): 0/1
No. of positive cases/total no. of cases studied ([2]; Melanoma): 0/3
No. of positive cases/total no. of cases studied ([2]; Mesothelioma): 0/2
No. of positive cases/total no. of cases studied ([2]; Ovarian carcinoma): 0/2
No. of positive cases/total no. of cases studied ([2]; Pancreatic carcinoma): 0/2
No. of positive cases/total no. of cases studied ([2]; Prostatic carcinoma): 1/1
No. of positive cases/total no. of cases studied ([2]; Renal cell carcinoma): 0/2
No. of positive cases/total no. of cases studied ([2]; Rhabdosarcoma): 0/2
No. of positive cases/total no. of cases studied ([2]; Thyroid carcinoma): 0/2
No. of positive cases/total no. of cases studied ([2]; Undifferentiated carcinoma): 0/4
